Data reported in patent US20210130452A1 (Merck KGaA, published 2021).
“And” between values parts separate entries of the source, which are not always exact repeats. Equal values may be shown once.

T1: human IL-17F (human, UniProt Q96PD4 31-163)
T1 sequence: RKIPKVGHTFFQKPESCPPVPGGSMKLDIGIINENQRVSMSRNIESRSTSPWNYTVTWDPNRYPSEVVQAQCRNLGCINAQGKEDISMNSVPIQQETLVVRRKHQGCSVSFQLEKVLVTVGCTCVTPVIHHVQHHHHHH

T2: Cynomolgus monkey IL-17F (Cynomolgus monkey, UniProt G7P4V0 31-163)
T2 sequence: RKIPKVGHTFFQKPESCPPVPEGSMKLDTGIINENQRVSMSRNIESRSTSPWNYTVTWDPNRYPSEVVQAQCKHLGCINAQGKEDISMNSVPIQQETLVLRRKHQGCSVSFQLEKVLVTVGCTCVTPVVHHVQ

T3: marmoset IL-17A (marmoset, IL-17A is a disulfide-linked homodimer. One chain is given.)
T3 chain: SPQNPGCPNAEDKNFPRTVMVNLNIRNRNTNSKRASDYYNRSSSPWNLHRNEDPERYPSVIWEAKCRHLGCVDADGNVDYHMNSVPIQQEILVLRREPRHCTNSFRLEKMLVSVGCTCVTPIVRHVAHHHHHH

T4: mouse IL-17A (mouse, UniProt Q62386 26-158)
T4 sequence (looked up): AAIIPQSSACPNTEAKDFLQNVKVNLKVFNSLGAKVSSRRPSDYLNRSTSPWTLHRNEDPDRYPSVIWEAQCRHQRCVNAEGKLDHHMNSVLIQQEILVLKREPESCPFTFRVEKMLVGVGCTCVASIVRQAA

T5: rat IL-17A (rat, UniProt Q61453 18-150, limits assumed)
T5 sequence (looked up): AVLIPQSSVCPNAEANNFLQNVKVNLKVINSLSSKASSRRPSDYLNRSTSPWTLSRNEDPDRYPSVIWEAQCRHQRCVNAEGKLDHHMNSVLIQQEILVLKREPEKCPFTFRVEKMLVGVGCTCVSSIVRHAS

T6: marmoset IL-17F (marmoset, UniProt A6N6I9 31-163)
T6 sequence (looked up): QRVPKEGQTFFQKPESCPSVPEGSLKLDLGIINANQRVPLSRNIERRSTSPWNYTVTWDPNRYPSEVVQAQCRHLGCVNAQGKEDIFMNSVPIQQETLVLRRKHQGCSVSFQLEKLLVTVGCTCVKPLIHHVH

T7: mouse IL-17F (mouse, UniProt Q7TNI7 29-161)
T7 sequence (looked up): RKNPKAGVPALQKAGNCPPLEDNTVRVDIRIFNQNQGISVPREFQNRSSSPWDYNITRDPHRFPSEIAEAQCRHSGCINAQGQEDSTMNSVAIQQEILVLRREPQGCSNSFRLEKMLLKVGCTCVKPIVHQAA

T8: rat IL-17F (rat, UniProt Q5BJ95 29-161)
T8 sequence (looked up): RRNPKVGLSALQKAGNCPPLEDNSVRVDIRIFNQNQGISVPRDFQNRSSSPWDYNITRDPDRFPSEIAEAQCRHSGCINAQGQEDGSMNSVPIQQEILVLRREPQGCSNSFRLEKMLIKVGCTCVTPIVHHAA


Key:
human IL-17A [1] = target: T9, human IL-17A (human, UniProt Q16552 24-155); test: cell-based or functional assay
human IL-17F [2] = target: T1, human IL-17F; test: cell-based or functional assay
human IL-17A [3] = target: T9, human IL-17A; test: cell-based or functional assay; remark: listed apart in the source
human IL-17F [4] = target: T1, human IL-17F; test: cell-based or functional assay; remark: listed apart in the source
Cynomolgus monkey IL-17A = Cynomolgus monkey IL-17A (Cynomolgus monkey, UniProt A0A2K5TTB0 24-155); test: cell-based or functional assay
human IL-17F [5] = target: T1, human IL-17F; test: KinExA, 600 pM Nanobody
Cynomolgus monkey IL-17F = target: T2, Cynomolgus monkey IL-17F; test: cell-based or functional assay
human IL-17A [6] = target: T9, human IL-17A; test: KinExA, 300 pM Nanobody
Method: (§1) The affinity of a limited set of formatted Nanobodies was determined using the KinExA.

human IL-17F [7] = target: T1, human IL-17F; test: KinExA, 300 pM Nanobody
Method: as §1

human IL-17A [8] = target: T9, human IL-17A; test: competition ELISA IL17A-RA
Method: To this end, IL-17RA, respectively IL-17RC was coated at a concentration of 1 μg/ml in PBS.

human IL-17A [9] = target: T9, human IL-17A; test: SPR
[10] = target: T10, human IL-17A/F heterodimer (human, UniProt Q16552 24-155; Q96PD4 31-163, limits assumed); test: SPR
T10 construct: produced in E. coli, bought from R&D Systems (Cat 5194-IL/CF); also called hIL-17A/F

human IL-17A [11] = target: T9, human IL-17A; test: ELISA, coated IL-17A
Method: (§2) Binding of a selected panel of anti-IL-17 Nanobodies to IL-17 of other species was assessed using a binding ELISA. […] HRP (horseradish peroxidase) conjugated anti-myc (Serotec, MCA 2200P) was used for detection using esTMB as substrate.

marmoset IL-17A = target: T3, marmoset IL-17A; test: ELISA, coated IL-17A
Method: as §2

mouse IL-17A = target: T4, mouse IL-17A; test: ELISA, coated IL-17A
Method: as §2

rat IL-17A = target: T5, rat IL-17A; test: ELISA, coated IL-17A
Method: as §2

guinea pig IL-17A = guinea pig IL-17A (guinea pig); test: ELISA, coated IL-17A
Method: as §2

human IL-17F [12] = target: T1, human IL-17F; test: ELISA, coated IL-17F;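 further: binding ELISA on coated antigen from various species, with bound Nanobodies revealed by an HRP-linked anti-myc antibody and esTMB substrate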
Method: as §2

marmoset IL-17F = target: T6, marmoset IL-17F; test: ELISA, coated IL-17F;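 further: binding ELISA on coated antigen from various species, with bound Nanobodies revealed by an HRP-linked anti-myc antibody and esTMB substrate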
Method: as §2

human IL-17A [13] = target: T9, human IL-17A; test: KinExA, 600 pM Nanobody
human IL-17A [14] = target: T9, human IL-17A; test: AlphaScreen IL-17A-IL-17RA, average
human IL-17A [15] = target: T9, human IL-17A; test: SPR, IL-17A-Nanobody complex over captured IL-17RA
From the text: The receptor (IL-17RA or IL-17RC) was captured via its human Fc-tail by an anti-human IgG-Fc antibody coated on the chip.

human IL-17F [16] = target: T1, human IL-17F; test: KinExA, 10 pM Nanobody
human IL-17A [17] = target: T9, human IL-17A; test: KinExA, 50 pM Nanobody
Method: as §1

human IL-17F [18] = target: T1, human IL-17F; test: KinExA, 50 pM Nanobody
Method: as §1

mouse IL-17F = target: T7, mouse IL-17F; test: ELISA, coated IL-17F;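 further: binding ELISA on coated antigen from various species, with bound Nanobodies revealed by an HRP-linked anti-myc antibody and esTMB substrate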
Method: as §2

rat IL-17F = target: T8, rat IL-17F; test: ELISA, coated IL-17F;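 further: binding ELISA on coated antigen from various species, with bound Nanobodies revealed by an HRP-linked anti-myc antibody and esTMB substrate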
Method: as §2

human IL-17A [19] = target: T9, human IL-17A; test: KinExA, 200 pM Nanobody
human IL-17A [20] = target: T9, human IL-17A; test: KinExA, 30 pM Nanobody
human IL-17A [21] = target: T9, human IL-17A; test: KinExA, 100 pM Nanobody
Method: as §1

T9 sequence (Q16552 other isoform, or with tags, fused parts or gaps): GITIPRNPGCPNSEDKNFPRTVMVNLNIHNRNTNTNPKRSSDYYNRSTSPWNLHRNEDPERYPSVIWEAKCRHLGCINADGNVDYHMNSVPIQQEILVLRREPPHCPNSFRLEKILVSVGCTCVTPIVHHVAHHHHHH
Chain of Cynomolgus monkey IL-17A (A0A2K5TTB0 entry or part of it): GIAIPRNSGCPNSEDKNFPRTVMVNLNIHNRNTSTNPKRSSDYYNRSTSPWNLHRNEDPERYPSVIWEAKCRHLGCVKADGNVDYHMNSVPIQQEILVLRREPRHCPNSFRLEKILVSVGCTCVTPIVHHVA
T10 sequence (Q16552 24-155 limits assumed, one chain of several): as the sequence (A0A2K5TTB0 entry or part of it) above, with A3T, S8P, S34N, V77I, K78N, R104P counted along it

| Binder | IC50, hIL-17A induced IL-6, HT-1080, without HSA (human IL-17A [1]) [nM] | IC50, hIL-17F induced IL-6, HT-1080, without HSA (human IL-17F [2]) [nM] | Emax, hIL-17A induced IL-6, HT-1080, 100 µM HSA (human IL-17A [3]) [%] | IC50, hIL-17A induced IL-6, HT-1080, 100 µM HSA (human IL-17A [3]) [nM] | IC50, hIL-17F induced IL-6, HT-1080, 100 µM HSA (human IL-17F [4]) [nM] | IC50, Cyno IL17A, HT-1080 bioassay (Cynomolgus monkey IL-17A) [nM] | IC50 (human IL-17A [8]) [nM] | OD (human IL-17A [11]) [OD] | OD (marmoset IL-17A) [OD] | OD (mouse IL-17A) [OD] | OD (rat IL-17A) [OD] | OD (guinea pig IL-17A) [OD] | % Biacore binding (IL-17A-NB)-IL-17RA (human IL-17A [15]) [%] | other results |
| --- | --- | --- | --- | --- | --- | --- | --- | --- | --- | --- | --- | --- | --- | --- |
| 13E02-LH-Fc (Fc fusion, not shown: a dimerising Fc or GST, bivalent Fc fusion from Hek-293-6E cells; also called MSB0010606) EVQLVESGGGLVQAGGSLRLSCAASGRTYDAMGWLRQAPGKEREFVAAISGSGDDTYYADSVKGRFTISKDNAGITMYLQMNSLKPEDTAVYYCATRRGLYYVWDSNDYENWGQGTQVTVSSEPKTPKPQPQPQPQPNPTTESKCPKCP | 0.19 | 2.7 | 98.5 | 0.85 | 15.3 | 0.19 | – | – | – | – | – | – | – | Kd (human IL-17F [5]): 2.04 nM |
| 13B03-SH-Fc (Fc fusion, not shown: a dimerising Fc or GST, bivalent Fc fusion from Hek-293-6E cells; signal peptide left out; also called MSB0010493; 13B03VHH-SH-Fc) EVQLVESGGGSVQAGDSLRLSCAASGRANSINWFGWFRQTPGKEREFVAGIRWSDAYTEYANSVKGRFTISRDNAKNTVDLQMDSLKPEDTAVYYCVLDLSTVRYWGQGTQVTVSSEPKSSDKTHTCPPCP | 0.19 | 5.8 | – | – | – | 0.21 | 0.02 | – | – | – | – | – | – | Emax, hIL-17A induced IL-6, HT-1080, without HSA (human IL-17A [1]): 100%; IC50, Cyno IL17F, HT-1080 bioassay (Cynomolgus monkey IL-17F): 3.8 nM; Kd (human IL-17A [6]): 0.0002 nM; Kd (human IL-17F [7]): 0.132 nM |
| 04G01 (VHH, Class 2; also called IL17MS04G01) VHH: EVQLVESGGGLVQAGGSQRLSCTASGTIVNIHVMGWYRQAPGKQRELVALIFSGGSADYADSVKGRFTISRDNAKNTVYLEMNSLKAEDTAVYYCAAEIGYYSGGTYYSSEAHWGQGTQVTVSS | – | – | – | – | – | – | – | 1.9 | 1.93 | -0.001 | 0.004 | 0.008 | -0.43 | koff (human IL-17A [9]): 0.00018 s⁻¹ and 0.000116 s⁻¹; koff [10]: 0.00023 s⁻¹ and 0.00017 s⁻¹; OD (human IL-17F [12]): -0.016 OD; OD (marmoset IL-17F): 0.0005 OD; Kd (human IL-17A [13]): 0.0134 nM; IC50 (human IL-17A [14]): 0.093 nM |
| 13B03-LH-Fc (Fc fusion, not shown: a dimerising Fc or GST, bivalent Fc fusion from Hek-293-6E cells; also called MSB0010530) EVQLVESGGGSVQAGDSLRLSCAASGRANSINWFGWFRQTPGKEREFVAGIRWSDAYTEYANSVKGRFTISRDNAKNTVDLQMDSLKPEDTAVYYCVLDLSTVRYWGQGTQVTVSSEPKTPKPQPQPQPQPNPTTESKCPKCP | – | – | 97.5 | 0.95 | 15.6 | – | 0.031 | – | – | – | – | – | – | Kd (human IL-17F [16]): 0.0223 nM; Kd (human IL-17A [17]): 0.002 nM; Kd (human IL-17F [18]): 0.02 nM |
| 01A01 (VHH, Class 4) VHH: EVQLVESGGGLVQAGGSLRLSCAASGFTFDDYDIGWFRQAPGKEREGVSCFTSSDGRTFYADSVKGRFTVSADNAKNTVYLQMNSLEPEDTAVYFCAAVNTFDESAYAAFACYDVVRWGQGTQVTVSS | – | – | – | – | – | – | – | 1.83 | 1.84 | -0.003 | 0.004 | 0.008 | -1.04 | OD (mouse IL-17F): -0.0005 OD; OD (rat IL-17F): 0.0005 OD; Kd (human IL-17A [19]): 0.0013 nM |
| 13E02-SH-Fc (Fc fusion, not shown: a dimerising Fc or GST, bivalent Fc fusion from Hek-293-6E cells) EVQLVESGGGLVQAGGSLRLSCAASGRTYDAMGWLRQAPGKEREFVAAISGSGDDTYYADSVKGRFTISKDNAGITMYLQMNSLKPEDTAVYYCATRRGLYYVWDSNDYENWGQGTQVTVSSEPKSSDKTHTCPPCP | – | – | – | – | – | – | – | – | – | – | – | – | – | Kd (human IL-17A [20]): 0.0036 nM; Kd (human IL-17A [21]): 0.009 nM |
